Patent US8003609B2, “Method for ameliorating pain by modification of NMDA receptors through inhibition of Src” (The Hospital for Sick Children, priority 2004, dated 2011)
Square brackets hold non-standard residues; d marks the D form. Ends that are not written are not given here. pY = N[C@@H](Cc1ccc(OP(=O)(O)O)cc1)C(=O)O

Tests used:
AMPA receptor = experiment: mEPSC whole cell recordings in cultured hippocampal neurons, AMPA receptor component; format: cell-based, rat; conditions: under the recording conditions used
Description: (§1) Fetal rat hippocampal neurons were prepared, cultured, and used for electrophysiological recordings 12-17 days after plating. Methods for whole cell recordings are described in Pelkey et al. (Neuron 34:127-138 2002).
(§2) In contrast, in control experiments administering EPQ(pY)EEIPIA (SEQ ID NO:5) increased the NMDAR component of mEPSCs by 172±28% and application of Src40-58 decreased the NMDAR component to 56±4% (FIGS. 5D-F). […] Composite traces are shown in black, the NMDAR component in dark grey, and the AMPAR component in light grey. Scale bars are 50 ms/10 pA. […] NMDA component data were calculated as Q20′/Q2′, and AMPA component data were calculated as A20′/A2′. […] An * indicates a significant difference, Student's t-test, p<0.05. Taking our results together, it is concluded that Src-dependent regulation of the activity of NMDARs depends on expression of ND2 through its anchoring of Src to the NMDAR complex.

NMDAR = experiment: mEPSC whole cell recordings in cultured hippocampal neurons, NMDAR component; format: cell-based, rat
Description: as §1, §2

Src unique domain = molecular target: T1, Src unique domain (Mus musculus, UniProt P05480); experiment: blot of ND2-GST fusion proteins probed with biotinylated Src unique domain; format: binding; conditions: GST fusion protein
T1 construct: amino acids 4-82 (the Src unique domain); GST (N); made in house; host or cells: BL21 bacteria
Description: (§3) Src, Fyn, and ND2 recombinant proteins were prepared. The cDNAs encoding the SH3 and SH2 domains of mouse n-Src and Fyn were PCR subcloned, ligated in frame into pGEX4T-1 (Amersham Pharmacia Biotech, Baie d'Urfé, Québec), and sequenced. These plasmids, as well as plasmids encoding the unique domains of Src and Fyn in pGEX2T'6, were transformed into BL21 bacteria, and GST fusion proteins were purified by glutathione affinity chromatography. To create the ND2.1, ND2.2, and ND2.3 GST fusion proteins, cDNAs encoding amino acids 239-321 (ND2.1-GST; SEQ ID NO:7), amino acids 189-238 (ND2.2-GST; SEQ ID NO:11), and amino acids 1-188 (ND2.3-GST; SEQ ID NO:13) of human ND2 were PCR subcloned and ligated into pGEX4T-1 (the nucleotide sequence encoding ND2 is SEQ ID NO:8 and the amino acid sequence is SEQ ID NO:9; the nucleotide sequences encoding ND2.1; ND2.2 and ND2.3 are SEQ ID NOS:6, 10 and 12, respectively). Using PCR-based single nucleotide mutagenesis, all cDNAs encoding ND2 fusion proteins were corrected for differences between mitochondrial and nuclear codons to prevent premature translation termination and protein truncation. All constructs were then confirmed by sequencing. The plasmids were transformed into bacteria, and GST fusion proteins were purified by glutathione affinity chromatography.
(§4) Detailed protocols for in vitro binding assays, pull down assays, immunoblotting, and co-immunoprecipitation techniques can be found in Pelkey et al. (Neuron 34:127-138 2002).
As yeast two-hybrid screening may reveal false positive protein-protein interactions, the interaction between Src and ND2 was observed using an independent methodological approach. Direct binding in vitro between ND2 and Src was tested using recombinant proteins. A series of GST fusion proteins comprised of portions of ND2 that spanned the overlapping region found with the yeast two-hybrid screen were made (FIG. 1A). […]

ND2.1-GST = molecular target: T2, ND2.1-GST (Homo sapiens, UniProt P03891, A265T); experiment: in vitro binding of biotinylated Src peptides to ND2.1-GST (blot / dot blot); conditions: biotinylated peptide, streptavidin-HRP detection
T2 construct: made in house; host or cells: bacteria
Description: as §3
Src40-58 and scrambled Src peptides were biotinylated by incubating with Sulfo-NHS-Biotin (Pierce Chemical Co., Rockford, Ill.) for 30 minutes at room temperature (SEQ ID NO:4, Src protein). […] Bound probe was then detected on film using an ECL kit.
To detect the binding of ND2.1-GST with Src peptides, the ND2.1-GST fusion protein was purified on glutathione SEPHAROSE. […] Bound probe was then detected on film using an ECL kit (Amersham Pharmacia Biotech, Baie d'Urfé, Québec).
Src40-58, Src40-49, Src49-58, scrambled Src40-58, TAT-Src40-49, and scrambled TAT-Src40-49 peptides were biotinylated by incubating with Sulfo-NHS-Biotin (Pierce Chemical Co., Rockford, Ill.) for 30 minutes at room temperature. […] Bound probe was then detected on film using an ECL kit.

Fyn unique domain = molecular target: T3, Fyn unique domain (Mus musculus, UniProt P39688); experiment: blot of ND2.1-GST probed with biotinylated Fyn unique domain; format: binding
T3 construct: plasmids encoding the unique domains of Src and Fyn in pGEX2T'6; GST (N); made in house; host or cells: BL21 bacteria
T3 sequence (P39688 1-81 limits assumed): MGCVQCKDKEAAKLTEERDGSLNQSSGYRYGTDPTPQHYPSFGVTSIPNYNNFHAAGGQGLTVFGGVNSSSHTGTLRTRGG
Description: (§5) Src, Fyn, and ND2 recombinant proteins were prepared. The cDNAs encoding the SH3 and SH2 domains of mouse n-Src and Fyn were PCR subcloned, ligated in frame into pGEX4T-1 (Amersham Pharmacia Biotech, Baie d'Urfé, Québec), and sequenced. These plasmids, as well as plasmids encoding the unique domains of Src and Fyn in pGEX2T'6, were transformed into BL21 bacteria, and GST fusion proteins were purified by glutathione affinity chromatography. To create the ND2.1, ND2.2, and ND2.3 GST fusion proteins, cDNAs encoding amino acids 239-321 (ND2.1-GST; SEQ ID NO:7), amino acids 189-238 (ND2.2-GST; SEQ ID NO:11), and amino acids 1-188 (ND2.3-GST; SEQ ID NO:13) of human ND2 were PCR subcloned and ligated into pGEX4T-1 (the nucleotide sequence encoding ND2 is SEQ ID NO:8 and the amino acid sequence is SEQ ID NO:9; the nucleotide sequences encoding ND2.1; ND2.2 and ND2.3 are SEQ ID NOS:6, 10 and 12, respectively). Using PCR-based single nucleotide mutagenesis, all cDNAs encoding ND2 fusion proteins were corrected for differences between mitochondrial and nuclear codons to prevent premature translation termination and protein truncation. All constructs were then confirmed by sequencing. The plasmids were transformed into bacteria, and GST fusion proteins were purified by glutathione affinity chromatography. […]

Src [1] = molecular target: Src (Homo sapiens, UniProt P12931); experiment: catalytic activity of Src in vitro; format: biochemical; conditions: not illustrated
Source text: As ND2 alone is not catalytically active (J. E. Walker Quarterly Reviews of Biophysics 25(3):253-324 1992; Sazanov et al. Journal of Molecular Biology 302:455-464 2000; Sazanove et al. Biochemistry 39:7229-7235 2000), its functional role in the NMDAR complex was investigated. […] Thus, it is unlikely that ND2 is a target of Src or a regulator of Src kinase activity.

Src [2] = molecular target: T4, Src (Rattus norvegicus, UniProt Q9WUD9); experiment: pull down of Src from PSD preparations by ND2-GST fusion proteins; format: binding
T4 construct: from tissue; host or cells: rat brain post-synaptic density fraction
Description: as §4
(§6) Post-synaptic density proteins (Kennedy et al. Proceedings of the National Academy of Science USA 80:7357-7361 1983) were prepared from rat brain as described in detail (Pelkey et al. Neuron 34:127-138 2002). Cellular fractionation of rat brain tissue into nuclear, heavy mitochondrial, light mitochondrial, microsomal, and cytosolic fractions was performed by differential centrifugation of tissue homogenate in 0.25 M sucrose/10 mM HEPES-NaOH, 1 mM EDTA, pH 7.4 with 2 μg each of aprotinin, pepstatin A, and leupeptin (Sigma, St. Louis, Mo.) at 4° C. Nuclei were pelleted by centrifugation at 1 000 g for 10 minutes, the supernatant was removed and spun at 3 000 g for 10 minutes to obtain a heavy mitochondrial pellet. The supernatant was removed and spun at 16 000 g for 15 minutes to obtain a light mitochondrial pellet. The supernatant was removed and spun at 100 000 g for 1 hour to obtain a microsomal pellet and the cytosolic fraction. All pellets were then resuspended in RIPA buffer (50 mM Tris pH 7.6, 150 mM NaCl, 1 mM EDTA, 1% NP-40, 2.5 mg/ml NaDOC, 1 mM Na3VO4 1 mM PMSF, and 2 μg/ml each of protease inhibitors). The light mitochondrial fraction was used in subsequent experiments. […]

[3] = tested on: SH2 or SH3 domains of Src; experiment: blot of ND2.1-GST probed with biotinylated SH2 and SH3 domains of Src; format: binding, mouse
Description: as §5

[4] = molecular target: T5, association of Src with the NMDAR complexes (Rattus norvegicus, UniProt P11662); experiment: co-immunoprecipitation of Src with NMDARs from PSD proteins; format: binding
T5 construct: from tissue; host or cells: rat brain post-synaptic density fraction
T5 sequence (P11662 whole entry, other chains not shown): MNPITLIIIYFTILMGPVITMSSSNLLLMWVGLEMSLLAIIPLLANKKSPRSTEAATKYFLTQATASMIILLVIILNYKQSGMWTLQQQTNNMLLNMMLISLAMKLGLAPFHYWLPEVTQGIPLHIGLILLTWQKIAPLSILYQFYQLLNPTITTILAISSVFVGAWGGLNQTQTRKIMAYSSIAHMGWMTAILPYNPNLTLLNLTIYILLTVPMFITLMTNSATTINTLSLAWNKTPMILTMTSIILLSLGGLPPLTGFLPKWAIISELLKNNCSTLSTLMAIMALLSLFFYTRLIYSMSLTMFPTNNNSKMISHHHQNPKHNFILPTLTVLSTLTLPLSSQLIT
Description: as §4, §6

## EPQ(pY)EEIPIA (EPQ[pY]EEIPIA)
AMPA receptor
  AMPA receptor component of the mEPSCs: neither of these reagents affected
NMDAR; control experiments, cultured hippocampal neurons
  NMDAR component of mEPSCs, increased by: 172±28%
NMDAR; neurons treated with chloramphenicol for 48 hours
  NMDAR component of the mEPSCs: not affected

## ND2.2-GST: GST fusion protein containing amino acids 189-238 of human ND2 (SEQ ID NO:11) (WMMAVLPYNPNMTILNLTIYIILTTTAFLLLNLNSSTTTLLLSRTWNKLT; also: GST fusion protein)
Src unique domain
  binding to the unique domain of Src: did not bind

## Src40-49: peptide, 10 amino acid residues, corresponding approximately to amino acid positions 40-49 of the Src unique domain (SEQ ID NO:1) (KPASADGHR; listed as Homo sapiens)
ND2.1-GST
  binding to ND2.1-GST: interacts with ND2

## Src50-58: Src49-58: peptide comprising amino acid residues 49-58 of SEQ ID NO:4; printed Src50-58 in the summary (PSAAFAPAAA; listed as Homo sapiens)
ND2.1-GST
  binding to ND2.1-GST: did not interact

B1: ND2.1-GST: GST fusion protein containing amino acids 239-321 of human ND2 (SEQ ID NO:7) (protein)
chain: WLTPLIPSTLLSLGGLPPLTGFLPKWTIIEEFTKNNSLIIPTIMATITLLNLYFYLRLIYSTSITLLPMSNNVKMKWQFE
modifications: left off: a dimerising Fc or GST
Fyn unique domain
  interaction in vitro with the Fyn unique domain: did not interact
Src [1]
  catalytic activity of Src in vitro: did not alter
Src unique domain
  binding to the unique domain of Src: bound
Src [2]
  pulls Src from PSD preparations: pulls Src
[3]
  binding to the SH2 or SH3 domains of Src: did not bind
[4]
  co-immunoprecipitation of Src with NMDARs: suppressed

B2: ND2.3-GST: GST fusion protein containing amino acids 1-188 of human ND2 (SEQ ID NO:13) (protein)
chain: MNPLAQPVIYSTIFAGTLITALSSHWFFTWVGLEMNMLAFIPVLTKKMNPRSTEAAIKYFLTQATASMILLMAILFNNMLSGQWTMTNTTNQYSSLMIMMAMAMKLGMAPFHFWVPEVTQGTPLTSGLLLLTWQKLAPISIMYQISPSLNVSLLLTLSILSIMAGSWGGLNQTQLRKILAYSSITHMG
modifications: left off: a dimerising Fc or GST
Src unique domain
  binding to the unique domain of Src: did not bind
